Source: patent US20120208744A1, “ANTI-MICROBIAL AGENTS AND COMPOSITIONS AND METHODS OF PRODUCTION AND USE THEREOF” (The Penn State Research Foundation, priority 2011, published 2012)
Numbering of substitutions follows the chain as printed. In names and notes the source's numbering stands.

B1: ExbD I102C: ExbD cysteine substitution I102C (pKP1010) (protein)
chain: MAMHLNENLDDNGEMHDINVTPFIDVMLVLLIIFMVAAPLAIVDVKVNLPASTSTPQPRPEKPVYLSVKADNSMFIGNDPVTDETMITALNALTEGKKDITCFFRADKTVDYETLMKVMDTLHQAGYLKIGLVGEETAKAK
B2: ExbD G96C: ExbD cysteine substitution G96C (pKP1004) (protein)
chain: B1 chain with G96C, C102I
B3: ExbD K108C: ExbD cysteine substitution K108C (pKP1016) (protein)
chain: B1 chain with C102I, K108C
B4: ExbD Y112C: ExbD cysteine substitution Y112C (pKP1020) (protein)
chain: B1 chain with C102I, Y112C
B5: ExbD M116C: ExbD cysteine substitution M116C (pKP1024) (protein)
chain: B1 chain with C102I, M116C
B6: Colicin B: TonB-dependent colicin; toxin that enters and kills E. coli via the TonB system; standard colicin preparation (protein, UniProt P05819 2-511, looked up)
Colicin-B: SDNEGSVPTEGIDYGDTMVVWPSTGRIPGGDVKPGGSSGLAPSMPPGWGDYSPQGIALVQSVLFPGIIRRIILDKELEEGDWSGWSVSVHSPWGNEKVSAARTVLENGLRGGLPEPSRPAAVSFARLEPASGNEQKIIRLMVTQQLEQVTDIPASQLPAAGNNVPVKYRLTDLMQNGTQYMAIIGGIPMTVPVVDAVPVPDRSRPGTNIKDVYSAPVSPNLPDLVLSVGQMNTPVRSNPEIQEDGVISETGNYVEAGYTMSSNNHDVIVRFPEGSGVSPLYISAVEILDSNSLSQRQEAENNAKDDFRVKKEQENDEKTVLTKTSEVIISVGDKVGEYLGDKYKALSREIAENINNFQGKTIRSYDDAMSSINKLMANPSLKINATDKEAIVNAWKAFNAEDMGNKFAALGKTFKAADYAIKANNIREKSIEGYQTGNWGPLMLEVESWVISGMASAVALSLFSLTLGSALIAFGLSATVVGFVGVVIAGAIGAFIDDKFVDELNHKIIK
B7: Colicin M: TonB-dependent colicin; standard colicin preparation used in spot titers (protein, UniProt P05820 1-271, looked up)
Colicin-M: METLTVHAPSPSTNLPSYGNGAFSLSAPHVPGAGPLLVQVVYSFFQSPNMCLQALTQLEDYIKKHGASNPLTLQIISTNIGYFCNADRNLVLHPGISVYDAYHFAKPAPSQYDYRSMNMKQMSGNVTTPIVALAHYLWGNGAERSVNIANIGLKISPMKINQIKDIIKSGVVGTFPVSTKFTHATGDYNVITGAYLGNITLKTEGTLTISANGSWTYNGVVRSYDDKYDFNASTHRGIIGESLTRLGAMFSGKEYQILLPGEIHIKESGKR
B8: Colicin Ia: TonB-dependent colicin; standard colicin preparation used in spot titers (protein, UniProt P06716 1-626, looked up)
Colicin-Ia: MSDPVRITNPGAESLGYDSDGHEIMAVDIYVNPPRVDVFHGTPPAWSSFGNKTIWGGNEWVDDSPTRSDIEKRDKEITAYKNTLSAQQKENENKRTEAGKRLSAAIAAREKDENTLKTLRAGNADAADITRQEFRLLQAELREYGFRTEIAGYDALRLHTESRMLFADADSLRISPREARSLIEQAEKRQKDAQNADKKAADMLAEYERRKGILDTRLSELEKNGGAALAVLDAQQARLLGQQTRNDRAISEARNKLSSVTESLNTARNALTRAEQQLTQQKNTPDGKTIVSPEKFPGRSSTNHSIVVSGDPRFAGTIKITTSAVIDNRANLNYLLSHSGLDYKRNILNDRNPVVTEDVEGDKKIYNAEVAEWDKLRQRLLDARNKITSAESAVNSARNNLSARTNEQKHANDALNALLKEKENIRNQLSGINQKIAEEKRKQDELKATKDAINFTTEFLKSVSEKYGAKAEQLAREMAGQAKGKKIRNVEEALKTYEKYRADINKKINAKDRAAIAAALESVKLSDISSNLNRFSRGLGYAGKFTSLADWITEFGKAVRTENWRPLFVKTETIIAGNAATALVALVFSILTGSALGIIGYGLLMAVTGALIDESLVEKANKFWGI

Experiments:
[1] = tested on: ferrichrome-mediated iron transport; test: [55Fe]-ferrichrome uptake, ExbD cys substitutions, with or without CuoP treatment; type: cell-based, Escherichia coli; details: for activity: initial rate of ferrichrome-mediated iron transport relative to wild-type plasmid-encoded ExbD: non-reducing conditions, substitution expressed to native ExbD levels, strain RA1045
Protocol: Since CuoP treatment catalyzed almost 100% dimer formation for some of the cys substitutions, attempts were made to determine activity of the dimeric form. […] The amount of CuoP was reduced 10-fold to 0.03 mM and cells had to be suspended in fully supplemented M9 medium as described in Experimental Procedures.
Activity assays. Initial rates of [^55Fe]-ferrichrome uptake were determined. For assays where cultures were treated with copper-(1,10-phenanthroline)3, harvested cells were pelleted, resuspended in 1×M9 supplemented as described above (no sodium propionate added), and treated with an equal volume 0.06 mM CuoP ([final] 0.03 mM) or 0.5 mM sodium phosphate buffer, pH 7.4 (buffer only) for 5 min, at 37° C. with aeration. Cells were pelleted, and the standard iron transport protocol was followed starting with resuspension in the assay medium.
In all assays the CuoP solution was removed and assays carried out in identical media, but the medium present during the 5 min CuoP treatment was important and differentially affected activity of a wild-type strain.

E. coli = test: Spot titer assay (sensitivity to TonB-dependent colicins and bacteriophage); type: cell-based, Escherichia coli; details: three platings
Protocol: Activity assays: Spot titer assays were performed. Initial rates of [^55Fe]-ferrichrome uptake were determined.
Spot titers, which are capable of detecting very low levels of TonB activity, measure sensitivity to colicins and bacteriophage that enter and subsequently kill E. coli via the TonB system. […] Consistent with their insensitivity to phage and colicins, the other 13 deletion variants supported no iron transport.

[2] = CuoP-treated (0.03 mM, 5 min, supplemented M9)
[3] = overexpressed ExbD cys substitution
[4] = strain RA1017 (ΔExbBD, ΔTolQRA)
[5] = strain RA1017/pKP724 (ExbB, ExbDΔ132-141)
[6] = strain RA1017/pKP752 (ExbB, ExbDΔ102-111)
[7] = strain RA1017/pKP753 (ExbB, ExbDΔ92-101)
[8] = strain RA1017/pKP754 (ExbB, ExbDΔ82-91)
[9] = strain RA1017/pKP755 (ExbB, ExbDΔ72-81)
[10] = strain RA1017/pKP756 (ExbB, ExbDΔ62-71)
[11] = strain RA1017/pKP757 (ExbB, ExbDΔ52-61)
[12] = strain RA1017/pKP758 (ExbB, ExbDΔ32-41)
[13] = strain RA1017/pKP759 (ExbB, ExbDΔ22-31)
[14] = strain RA1017/pKP760 (ExbB, ExbDΔ12-21)
[15] = strain RA1017/pKP762 (ExbB, ExbDΔ42-51)
[16] = strain RA1017/pKP763 (ExbB, ExbDΔ112-121)
[17] = strain RA1017/pKP764 (ExbB, ExbDΔ122-131)

Molecule	activity: initial rate of ferrichrome-mediated iron transport relative to wild-type plasmid-encoded ExbD [1] [%]	activity: iron transport relative to wild-type ExbD [1, 2]	activity: iron transport relative to wild-type ExbD [1, 3] [%]	activity: iron transport relative to wild-type ExbD ([1]; buffer only treated samples)	Susceptibility: highest five-fold dilution of a standard colicin preparation that provided an evident zone of clearing on a cell lawn (E. coli; [4])	Susceptibility: highest five-fold dilution of a standard colicin preparation that provided an evident zone of clearing on a cell lawn (E. coli; [5])	Susceptibility: highest five-fold dilution of a standard colicin preparation that provided an evident zone of clearing on a cell lawn (E. coli; [6])	Susceptibility: highest five-fold dilution of a standard colicin preparation that provided an evident zone of clearing on a cell lawn (E. coli; [7])	Susceptibility: highest five-fold dilution of a standard colicin preparation that provided an evident zone of clearing on a cell lawn (E. coli; [8])	Susceptibility: highest five-fold dilution of a standard colicin preparation that provided an evident zone of clearing on a cell lawn (E. coli; [9])	Susceptibility: highest five-fold dilution of a standard colicin preparation that provided an evident zone of clearing on a cell lawn (E. coli; [10])	Susceptibility: highest five-fold dilution of a standard colicin preparation that provided an evident zone of clearing on a cell lawn (E. coli; [11])	Susceptibility: highest five-fold dilution of a standard colicin preparation that provided an evident zone of clearing on a cell lawn (E. coli; [12])	Susceptibility: highest five-fold dilution of a standard colicin preparation that provided an evident zone of clearing on a cell lawn (E. coli; [13])	Susceptibility: highest five-fold dilution of a standard colicin preparation that provided an evident zone of clearing on a cell lawn (E. coli; [14])	Susceptibility: highest five-fold dilution of a standard colicin preparation that provided an evident zone of clearing on a cell lawn (E. coli; [15])	Susceptibility: highest five-fold dilution of a standard colicin preparation that provided an evident zone of clearing on a cell lawn (E. coli; [16])	Susceptibility: highest five-fold dilution of a standard colicin preparation that provided an evident zone of clearing on a cell lawn (E. coli; [17])
B1	80																	
B2	85																	
B3	~110	at least 70%	110															
B4		5%	90	about 90%														
B5		20%		about 90%														
B6					T, T, T	T, T, T	T, T, T	T, T, T	T, T, T	T, T, T	T, T, T	T, T, T	T, T, T	T, T, T	T, T, T	T, T, T	T, T, T	T, T, T
B7					T, T, T	T, T, T	T, T, T	T, T, T	T, T, T	T, T, T	T, T, T	T, T, T	T, T, T	T, T, T	T, T, T	T, T, T	T, T, T	T, T, T
B8					T, T, T	T, T, T	T, T, T	T, T, T	T, T, T	T, T, T	T, T, T	T, T, T	T, T, T	T, T, T	T, T, T	T, T, T	T, T, T	T, T, T
